This is an account of results in publication PMC5691035 (Nature Communications, 2017).

For orientation: Kd means a measure of binding affinity in units of concentration. Low values mean tighter binding, high ones weaker binding. A word on the koff: it is the rate constant with which the complex falls apart. Read a high koff as a short-lived complex. In general, kon refers to the second-order rate constant of association. A higher kon goes with fast association.

B1: 1267 Fab (Fab, V domains shown)
VH: QVQLQQSGPGLVKPSQTLSLTCAISGDSVSSNSAAWNWIRQSPSRGLEWLGRTYYRSKWYNDYAVSVRGRITINPDTSKNHFSLQLNSVTPEDTAVYFCARDLMTNSGWYVYFDCWGQGTLVTVSS
VL: SYELTQPPSVSVSPGQSARITCSGDALPMKYAYWYQQKSGQAPVLVIYEDSKRPSGIPERFSGSSSGTMATLTISGAQVEDEADYYCFSTDSSGNHRVFGGGTKLT
notes: also called mAb 1267; source: HEK293F, transient, purified (KappaSelect or LambdaSelect, MonoS, SEC)
B2: 1266 Fab (Fab, V domains shown)
VH: QVQLQQSGPGLVKPSQTLSLTCAISGDSVSSNSAAWNWIRQSPSRGLEWLGRTYYRSKWYNDYAVSVKSRITINADTSKNQFSLQLNSVTPEDTAVYYCVRDLLGSSGWYVFFDNWGQGTLVTVSS
VL: B1 VL
notes: also called mAb 1266; source: HEK293F, transient, purified (KappaSelect or LambdaSelect, MonoS, SEC)
B3: 1202 Fab (Fab, V domains shown)
VH: QVQLVESGGDLVKPGGSLRLSCAASGFTFSDHYMNWIRQAPGKGLEWVSYISSSGSTIYYSDSVKGRFTISRDNAKYLLSLQMNSLRAEDTAVYFCARDPMVRGFHDAFDIWGQGTMVTVSS
VL: SYELTQPPSVSVSPGQTASITCSGDKLGDKYASWYQQKPGQSPVLVIFQDNKRPSGIPERFSGSNSGNTATLTISETQAMDEADYYCQAWDISTAVFGTGTNVT
notes: also called mAb 1202; source: HEK293F, transient, purified (KappaSelect or LambdaSelect, MonoS, SEC)
B4: 1260 Fab (Fab, V domains shown)
VH: QVQLVQSGAEVKKPGASVKVSCRASGYIFTSYGFSWVRQAPGQGLEWMGWISAYNGNTDYSQKLQGRVTMTTDTSTNTVYMELRTLQSDDTAVYYCARDRGDRLYYYYYYGMDVWGQGTTVTVSS
VL: not shown
notes: also called mAb 1260; source: HEK293F, transient, purified (KappaSelect or LambdaSelect, MonoS, SEC)
B5: 1262 Fab (Fab, V domains shown)
VH: QVQLQESGPGLVKPSGTLSLTCAVSGGSISSSHWWSWVRQPPGKGLEWVGEISLSGSTHYGPSLKSRVSISLDKSMNHFSLRLSSVTAADTAVYYCARESRFYGAYFDYWGQGTLVTVSS
VL: DIQLTQSPSFLSASVGDRVTITCWASQGINSYLAWYQQKPGKTPKLLIYAASTLQSGVPSRFSGSGSGTEFTLTISSLQPEDFATYYCQQLNSYPCSFGQGTTLEIK
notes: also called mAb 1262; source: HEK293F, transient, purified (KappaSelect or LambdaSelect, MonoS, SEC)
B6: 1268 Fab (Fab, V domains shown)
VH: EVQLVESGGGLVKPGGSLRLSCAASGFTFSRYSMNWVRQAPGKGLEWVSSISSRSSYKYYVDSVKGRFTISRDNAKNSLYLQMNSLRAEDTAVYYCARDDYGSGSYYYNWLDPWGQGTLVTVSS
VL: B5 VL with N30S, Y32F, T43A, Q55E, C96R, S97T, T103K, L104V
notes: also called mAb 1268; source: HEK293F, transient, purified (KappaSelect or LambdaSelect, MonoS, SEC)
B7: 1245 IgG (antibody, V domains shown)
VH: QVQLVQSGGEVKKPGASVKVSCKASGYTFTSYGISWVRQAPGQGLEWMGWISAYNGNRKYAQKVQGRVSMTIDTHTSTANMELRSLRSDDTAVYYCAKDRGDGDYRYYYYGMDVWGQGTTVTVSS
VL: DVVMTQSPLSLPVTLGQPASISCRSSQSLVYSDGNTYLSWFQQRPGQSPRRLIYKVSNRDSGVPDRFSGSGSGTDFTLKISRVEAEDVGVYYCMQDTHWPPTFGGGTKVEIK
notes: IgG1; also called mAb 1245; source: HEK293, transient, purified from conditioned medium (Protein A); synthesized by LakePharma
B8: 1245 Fab (Fab, V domains shown)
VH: B7 VH
VL: not shown
notes: also called mAb 1245; source: HEK293F, transient, purified (KappaSelect or LambdaSelect, MonoS, SEC)
B9: 1269 Fab (Fab, V domains shown)
VH: EVQLVESGGGLVQSGGSLRLSCAASGFTFSRNAMNWVRQAPGKGLEWVSTISGSGDSTYYADSVKGRFTISRDNSKNTLYLQVNSLRAEDTAVYYCAKGDYYFDSGSYSFGMDVWGQGTTVTVSS
VL: EIVLTQSPGTLSLSPGERATLSCRTSQSVSSSYLAWYQQKPGQAPRLLMYGASSRATGIPDRFSGSGSGTDFTLTISRLEPEDFAVYYCQQYGNSFGQGTRLEIK
notes: also called mAb 1269; source: HEK293F, transient, purified (KappaSelect or LambdaSelect, MonoS, SEC)
B10: 1269 IgG (antibody, V domains shown)
VH: B9 VH
VL: B9 VL
notes: IgG1; also called mAb 1269; source: HEK293, transient, purified from conditioned medium (Protein A); synthesized by LakePharma
B11: 1266 Fab (Fab, V domains shown)
VH: B2 VH
VL: B1 VL
notes: source: HEK293F, transiently expressed, purified (LambdaSelect or KappaSelect, MonoS, Superdex 200)
B12: 1267 Fab (Fab, V domains shown)
VH: B1 VH
VL: B1 VL
notes: as for B11
B13: 1202 Fab (Fab, V domains shown)
VH: B3 VH
VL: B3 VL
notes: as for B11
B14: 1276 Fab (Fab, V domains shown)
VH: not shown
VL: SYVLTQPPSVSVAPGKTAKITCGGNNIGSKSVHWYQQKPGQAPVLVMYYDFDRPSGIPERFSGSNSGNTATLTISRVEAEDEADYYCQVWDSDRYWVFGGGTKLTVL
notes: as for B11
B15: 1190 Fab (Fab, V domains shown)
VH: not shown
VL: SYVLTQPPSVSVAPGQTARITCGGSNIGSKSVHWYQQKPGQTPMLVIYYDYDRPSGIPERFSGSNSGSTATLTISRVEAGDEADYYCQVWDSSSDHVWVFGGGTTLTVL
notes: as for B11
B16: 1260 Fab (Fab, V domains shown)
VH: B4 VH
VL: not shown
notes: source: HEK293F, transiently expressed, purified (KappaSelect or LambdaSelect, MonoS, Superdex 200)
B17: 1262 Fab (Fab, V domains shown)
VH: B5 VH
VL: B5 VL
notes: as for B16
B18: 1268 Fab (Fab, V domains shown)
VH: B6 VH
VL: B5 VL with N30S, Y32F, T43A, Q55E, C96R, S97T, T103K, L104V
notes: as for B16
B19: 1245 Fab (Fab, V domains shown)
VH: B7 VH
VL: not shown
notes: as for B16
B20: 1269 Fab (Fab, V domains shown)
VH: B9 VH
VL: B9 VL
notes: as for B16

Residue numbers refer to the chain shown, from its start.

Sequence of Pfs25, monomeric, Nicotiana benthamiana-produced (Plasmodium falciparum (P13829 17-196): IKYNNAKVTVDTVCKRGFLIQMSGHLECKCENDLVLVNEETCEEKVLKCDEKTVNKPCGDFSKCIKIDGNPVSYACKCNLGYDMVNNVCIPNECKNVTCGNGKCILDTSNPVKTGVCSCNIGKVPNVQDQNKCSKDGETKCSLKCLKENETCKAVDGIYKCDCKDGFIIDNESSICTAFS

The first assay has as its target Pfs25, monomeric, Nicotiana benthamiana-produced (Plasmodium falciparum (NF54; identical …, UniProt P13829). Put plainly: BLI. As to conditions: both partners purified.
B1: the binding result was “binds”.

Turning to B2, the binding result is reported as “binds”.

B3: the binding result is listed as “binds”.

Consider B4, for which the binding result is “binds”.

Take B5: the binding result is on record as “binds”.

In the case of B6, the binding result is “binds”.

As for B7, the Kd is under 0.001 nM.

In the case of B8, the Kd amounted to 31 nM.

B9: the Kd came out at 3.7 nM.

The molecule B10 gave a Kd of under 0.001 nM.

In the next assay the target is Pfs25, monomeric, produced in Nicotiana benthamiana (Plasmodium falciparum (NF54; identical …, UniProt P13829). Kind of assay: BLI. As to conditions: both partners purified.
Sequence of Pfs25, monomeric, produced in Nicotiana benthamiana (Plasmodium falciparum (P13829 22-193): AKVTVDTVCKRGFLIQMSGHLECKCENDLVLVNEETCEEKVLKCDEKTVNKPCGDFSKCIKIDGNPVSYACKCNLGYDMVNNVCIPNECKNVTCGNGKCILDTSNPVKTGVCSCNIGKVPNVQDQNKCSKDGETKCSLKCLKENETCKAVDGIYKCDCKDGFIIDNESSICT
Turning to B11, binding was characterised by a dissociation constant (Kd) of 31 nM, the koff came out at 0.012 s⁻¹ and the kon amounted to 420000 M⁻¹ s⁻¹.

As for B12, the Kd came out at 7.9 nM, the koff is 0.0032 s⁻¹ and the kon was 430000 M⁻¹ s⁻¹.

B13 had a Kd of 35 nM, a koff of 0.016 s⁻¹ and a kon of 480000 M⁻¹ s⁻¹.

B14 displayed a koff of 0.0037 s⁻¹ and a kon of 210000 M⁻¹ s⁻¹.

In turn, B15 yielded a koff of 0.0021 s⁻¹ and a kon of 300000 M⁻¹ s⁻¹.

B16 gave a Kd of 41 nM, a koff of 0.00093 s⁻¹ and a kon of 23000 M⁻¹ s⁻¹.

Molecule B17 came in with a Kd of 12 nM, an off-rate constant (koff) of 0.0011 s⁻¹ and a kon of 80000 M⁻¹ s⁻¹.

The molecule B18 displayed a Kd of 67 nM, a koff of 0.006 s⁻¹ and a kon of 93000 M⁻¹ s⁻¹.

B19 registered a koff of 0.00038 s⁻¹ and a kon of 22000 M⁻¹ s⁻¹.

B20 returned a koff of 0.00084 s⁻¹ and a kon of 220000 M⁻¹ s⁻¹.
